Consider three molecules from paper PMC7782867 (2020).

Assay [1] deals with T1, CRIPT (Homo sapiens).
T1 chain: YKQTSV
Description: ITC. Background: In ITC the heat of successive injections is recorded.

In assay [2] the target is T2, CRIPT (Octopus bimaculoides).
T2 chain: YRQSSV
Description: stopped-flow.

Assay [3] addresses T3, CRIPT (Hydra vulgaris).
T3 chain: YRQTSC
Nature of the assay: stopped-flow.

Assay [4] addresses T4, ancestral Eukaryota CRIPT.
T4 chain: YKQSSV
Nature of the assay: stopped-flow.

Assay [5] has as its target T1, CRIPT. Description: stopped-flow.
Assay [6] concerns the target T5, CRIPT (Drosophila melanogaster).
T5 chain: YRQS[pS]T
Description: ITC.

For assay [7], the target named is T6, CRIPT (Drosophila melanogaster).
T6 chain: GKKIMNTKNYKQSST
Nature of the assay: ITC.

Assay [8] deals with T7, CRIPT (Drosophila melanogaster).
T7 chain: YRQSST
Description: ITC.

Square brackets hold non-standard residues; d marks the D form. Ends that are not written are not given here. pS = N[C@@H](COP(=O)(O)O)C(=O)O

B1: DLG4 PDZ3 PDZ3 (protein)
chain: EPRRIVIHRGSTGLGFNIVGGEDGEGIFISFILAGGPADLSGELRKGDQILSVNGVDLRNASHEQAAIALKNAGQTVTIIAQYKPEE
As usually defined, the Kd is the constant that tells how readily two partners part at equilibrium. Read a low Kd as a tighter complex. As to B1, the Kd with CRIPT [1] amounted to 700 nM; in the assay with CRIPT [2], 1240 nM; in the assay with CRIPT [3] it was 360 nM; in assay [4], 2180 nM; with CRIPT [5] it was 395 nM.

B2: DLG PDZ3 α3 PDZ3-α3 (protein)
chain: REPRTITIQKGPQGLGFNIVGGEDGQGIYVSFILAGGPADLGSELKRGDQLLSVNNVNLTHATHEEAAQALKTSGGVVTLLAQYRPEEYNRFEARI
Take B2: the Kd in the assay with CRIPT [6] was 40000 nM; with CRIPT [7] it was 34000 nM.

B3: DLG PDZ3 PDZ3 (protein)
chain: EPRTITIQKGPQGLGFNIVGGEDGQGIYVSFILAGGPADLGSELKRGDQLLSVNNVNLTHATHEEAAQALKTSGGVVTLLAQYRPEEY
As to B3, the Kd was 27000 nM with CRIPT [8] and 670 nM in assay [4].
